B1: Conjugate 3 (anti-VEGF DARPin SEQ ID NO: 92 on hyaluronic acid, intermediate 5-5) (designed binder)
chain: GSDLDKKLLEAARAGQDDEVRILMANGADVNARDSTGWTPLHLAAPWGHPEIVEVLLKNGADVNAADFQGWTPLHLAAAVGHLEIVEVLLKYGADVNAQDKFGKTAFDISIDNGNEDLAEILQKAAGGGSGGGS
modifications: peptide bound through the organic linker MP2H to hyaluronic acid (830 kDa); site of attachment not stated
notes: Multivalent peptide-hyaluronic acid conjugate (MVP); peptide valency 67; Method 5 intermediate; also called DARPin MVP (Method 5)
B2: HuNb42_A88P_aH_CYS (unconjugated) (VHH)
VHH: QVQLVESGGGLVQPGGSLRLSCAASGFAYSTYSMGWFRQAPGKEREAVATINSGTFRLWYTDSVKGRFTISRDNSKNTLYLQMNSLRPEDTAVYYCAARAWSPYSSTVDAGDFRYWGQGTLVTVSS
notes: Free peptide, not conjugated to hyaluronic acid
B3: Conjugate 28 (N42 anti-VEGF VHH, HuNb42 A88P aH_CYS, SEQ ID NO: 145, on hyaluronic acid, Method B intermediate) (VHH)
VHH: QVQLVESGGGLVQPGGSLRLSCAASGFAYSTYSMGWFRQAPGKEREAVATINSGTFRLWYTDSVKGRFTISRDNSKNTLYLQMNSLRPEDTAVYYCAARAWSPYSSTVDAGDFRYWGQGTLVTVSS
modifications: C-terminal Cys bound by its thiol to the maleimide of the organic linker MP2H on hyaluronic acid (830 kDa)
notes: Multivalent peptide-hyaluronic acid conjugate; valency 129
B4: Conjugate 15 (anti-VEGF VHH SEQ ID NO: 91 with aH linker SEQ ID NO: 21 on hyaluronic acid, intermediate 5-10) (VHH)
VHH: DVQLVESGGGLVQPGGSLRLSCAASGRTFSSYSMGWFRQAPGKEREFVVAISKGGYKYDAVSLEGRFTISRDNAKNTVYLQINSLRPEDTAVYYCASSRAYGSSRLRLADTYEYWGQGTLVTVSS
modifications: C-terminal Cys of the peptide linker bound by its thiol to the maleimide of the organic linker EMCH on hyaluronic acid (830 kDa)
notes: Multivalent peptide-hyaluronic acid conjugate (MVP); peptide valency 59; Method 5 intermediate 5-10, made with EMCH instead of MP2H; also called BI VHH anti-VEGF MVP
B5: Conjugate 21 (anti-VEGF VHH SEQ ID NO: 91 with aH linker SEQ ID NO: 21 on hyaluronic acid, intermediate 1-9) (VHH)
VHH: DVQLVESGGGLVQPGGSLRLSCAASGRTFSSYSMGWFRQAPGKEREFVVAISKGGYKYDAVSLEGRFTISRDNAKNTVYLQINSLRPEDTAVYYCASSRAYGSSRLRLADTYEYWGQGTLVTVSS
modifications: C-terminal Cys of the peptide linker bound by its thiol to the maleimide of the organic linker MP2H on hyaluronic acid (830 kDa)
notes: Multivalent peptide-hyaluronic acid conjugate (MVP); peptide valency 51; Method 1 intermediate; also called BI VHH anti-VEGF MVP
B6: Conjugate 14 (anti-VEGF VHH SEQ ID NO: 91 with Rigid linker SEQ ID NO: 31 on hyaluronic acid, intermediate 5-3) (VHH)
VHH: DVQLVESGGGLVQPGGSLRLSCAASGRTFSSYSMGWFRQAPGKEREFVVAISKGGYKYDAVSLEGRFTISRDNAKNTVYLQINSLRPEDTAVYYCASSRAYGSSRLRLADTYEYWGQGTLVTVSS
modifications: C-terminal Cys of the peptide linker bound by its thiol to the maleimide of the organic linker MP2H on hyaluronic acid (830 kDa)
notes: Multivalent peptide-hyaluronic acid conjugate (MVP); peptide valency 68; Method 5 intermediate; also called BI VHH anti-VEGF MVP
B7: Conjugate 17 (anti-VEGF VHH SEQ ID NO: 91 on hyaluronic acid, intermediate 1-7) (VHH)
VHH: DVQLVESGGGLVQPGGSLRLSCAASGRTFSSYSMGWFRQAPGKEREFVVAISKGGYKYDAVSLEGRFTISRDNAKNTVYLQINSLRPEDTAVYYCASSRAYGSSRLRLADTYEYWGQGTLVTVSS
modifications: peptide bound through the organic linker MP2H to hyaluronic acid (830 kDa); site of attachment not stated
notes: Multivalent peptide-hyaluronic acid conjugate (MVP); peptide valency 90; Method 1 intermediate; also called BI VHH anti-VEGF MVP
B8: Conjugate 13 (anti-VEGF VHH SEQ ID NO: 91 with Rigid linker SEQ ID NO: 31 on hyaluronic acid, intermediate 5-8) (VHH)
VHH: DVQLVESGGGLVQPGGSLRLSCAASGRTFSSYSMGWFRQAPGKEREFVVAISKGGYKYDAVSLEGRFTISRDNAKNTVYLQINSLRPEDTAVYYCASSRAYGSSRLRLADTYEYWGQGTLVTVSS
modifications: C-terminal Cys of the peptide linker bound by its thiol to the maleimide of the organic linker MP2H on hyaluronic acid (830 kDa)
notes: Multivalent peptide-hyaluronic acid conjugate (MVP); peptide valency 72; Method 5 intermediate; also called BI VHH anti-VEGF MVP
B9: Conjugate 23 (anti-VEGF VHH SEQ ID NO: 91 with aH linker SEQ ID NO: 21 on hyaluronic acid, intermediate 1-11) (VHH)
VHH: DVQLVESGGGLVQPGGSLRLSCAASGRTFSSYSMGWFRQAPGKEREFVVAISKGGYKYDAVSLEGRFTISRDNAKNTVYLQINSLRPEDTAVYYCASSRAYGSSRLRLADTYEYWGQGTLVTVSS
modifications: C-terminal Cys of the peptide linker bound by its thiol to the maleimide of the organic linker MP2H on hyaluronic acid (830 kDa)
notes: Multivalent peptide-hyaluronic acid conjugate (MVP); peptide valency 33; Method 1 intermediate; also called BI VHH anti-VEGF MVP
B10: Conjugate 18 (anti-VEGF VHH SEQ ID NO: 91 on hyaluronic acid, intermediate 1-7) (VHH)
VHH: DVQLVESGGGLVQPGGSLRLSCAASGRTFSSYSMGWFRQAPGKEREFVVAISKGGYKYDAVSLEGRFTISRDNAKNTVYLQINSLRPEDTAVYYCASSRAYGSSRLRLADTYEYWGQGTLVTVSS
modifications: peptide bound through the organic linker MP2H to hyaluronic acid (830 kDa); site of attachment not stated
notes: Multivalent peptide-hyaluronic acid conjugate (MVP); peptide valency 88; Method 1 intermediate; also called BI VHH anti-VEGF MVP
B11: Conjugate 22 (anti-VEGF VHH SEQ ID NO: 91 with aH linker SEQ ID NO: 21 on hyaluronic acid, intermediate 1-10) (VHH)
VHH: DVQLVESGGGLVQPGGSLRLSCAASGRTFSSYSMGWFRQAPGKEREFVVAISKGGYKYDAVSLEGRFTISRDNAKNTVYLQINSLRPEDTAVYYCASSRAYGSSRLRLADTYEYWGQGTLVTVSS
modifications: C-terminal Cys of the peptide linker bound by its thiol to the maleimide of the organic linker MP2H on hyaluronic acid (830 kDa)
notes: Multivalent peptide-hyaluronic acid conjugate (MVP); peptide valency 18; Method 1 intermediate; also called BI VHH anti-VEGF MVP
B12: Conjugate 19 (anti-VEGF VHH SEQ ID NO: 91 on hyaluronic acid, intermediate 2-6) (VHH)
VHH: DVQLVESGGGLVQPGGSLRLSCAASGRTFSSYSMGWFRQAPGKEREFVVAISKGGYKYDAVSLEGRFTISRDNAKNTVYLQINSLRPEDTAVYYCASSRAYGSSRLRLADTYEYWGQGTLVTVSS
modifications: peptide bound through the organic linker MP2H to hyaluronic acid (830 kDa); site of attachment not stated
notes: Multivalent peptide-hyaluronic acid conjugate (MVP); peptide valency 108; Method 2 intermediate; also called BI VHH anti-VEGF MVP
B13: Conjugate 20 (anti-VEGF VHH SEQ ID NO: 91 on hyaluronic acid, intermediate 2-8) (VHH)
VHH: DVQLVESGGGLVQPGGSLRLSCAASGRTFSSYSMGWFRQAPGKEREFVVAISKGGYKYDAVSLEGRFTISRDNAKNTVYLQINSLRPEDTAVYYCASSRAYGSSRLRLADTYEYWGQGTLVTVSS
modifications: peptide bound through the organic linker MP2H to hyaluronic acid (830 kDa); site of attachment not stated
notes: Multivalent peptide-hyaluronic acid conjugate (MVP); peptide valency 91; Method 2 intermediate; also called BI VHH anti-VEGF MVP
B14: 2H10_5MUT_aH_CYS (unconjugated) (VHH)
VHH: QVQLVESGGGLVQPGGSLRLSCLASGRRFSIEAMGWYRQAPGKQRELVAIIDSGGSTDYVDSAKGRFTISRDNSKNTVYLQMNSLRAEDTAVYYCNVIGSSWYGRGLDYWGQGTLVTVSS
notes: as for B2
B15: 2H10_5MUT_aH_CYS MVP [140.3] (VHH)
VHH: QVQLVESGGGLVQPGGSLRLSCLASGRRFSIEAMGWYRQAPGKQRELVAIIDSGGSTDYVDSAKGRFTISRDNSKNTVYLQMNSLRAEDTAVYYCNVIGSSWYGRGLDYWGQGTLVTVSS
modifications: C-terminal Cys is the conjugation site
notes: Multivalent protein-hyaluronic acid conjugate
B16: Conjugate 9 (anti-VEGF E1-1 SEQ ID NO: 81 with aH linker SEQ ID NO: 21 on hyaluronic acid, intermediate 5-9) (VHH)
VHH: EVQLQASGGGFVQPGGSLRLSCAASGGGSDAGTMGWFRQAPGKEREFVSAISWAGTAWRYYADSVKGRFTISRDNSKNTVYLQMNSLRAEDTATYYCALGSYEMDHHYWGQGTQVTVSS
modifications: C-terminal Cys of the peptide linker bound by its thiol to the maleimide of the organic linker MP2H on hyaluronic acid (830 kDa)
notes: Multivalent peptide-hyaluronic acid conjugate (MVP); peptide valency 51; Method 5 intermediate
B17: Conjugate 10 (anti-VEGF E1-1 SEQ ID NO: 81 with aH linker SEQ ID NO: 21 on hyaluronic acid, intermediate 2-4) (VHH)
VHH: EVQLQASGGGFVQPGGSLRLSCAASGGGSDAGTMGWFRQAPGKEREFVSAISWAGTAWRYYADSVKGRFTISRDNSKNTVYLQMNSLRAEDTATYYCALGSYEMDHHYWGQGTQVTVSS
modifications: C-terminal Cys of the peptide linker bound by its thiol to the maleimide of the organic linker MP2H on hyaluronic acid (830 kDa)
notes: Multivalent peptide-hyaluronic acid conjugate (MVP); peptide valency 136; Method 2 intermediate; also called anti-VEGF E1-1 MVP (Method 2)

Columns and labels:
Human VEGF 165 [1] = target: T1, Human VEGF 165 (human, UniProt P15692-4 27-191); assay: BLI, VEGF 165 on probe, conjugate as analyte, t = 0; value is the limit of detection
T1 construct: Loaded on the BLI probe as the ligand; also called BLI ligand Human VEGF 165 (Avi tag, R&D Systems AVI-293-050); not shown: Avi tag
T1 sequence (P15692 other isoform, or with tags, fused parts or gaps limits assumed): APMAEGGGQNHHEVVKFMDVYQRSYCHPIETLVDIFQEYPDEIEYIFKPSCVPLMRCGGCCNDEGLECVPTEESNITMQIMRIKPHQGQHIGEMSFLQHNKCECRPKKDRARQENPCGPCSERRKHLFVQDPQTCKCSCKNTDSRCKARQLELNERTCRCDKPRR

Human VEGF 165 [2] = target: T1, Human VEGF 165; assay: BLI, VEGF binding affinity (KD, nM)
Human VEGF 165 [3] = target: T1, Human VEGF 165; assay: BLI, VEGF 165 on probe, conjugate as analyte
Human VEGF 165 [4] = target: T1, Human VEGF 165; assay: BLI, VEGF 165 on probe, conjugate as analyte, t = 0; value is the limit of detection; t = 0, fresh conjugate, not aged
Human VEGF 165 [5] = target: T1, Human VEGF 165; assay: BLI; KD after 14 days at 37 °C against KD at t = 0
Human VEGF 165 [6] = target: T1, Human VEGF 165; assay: BLI, VEGF 165 on probe, t = 0 (repeats Table 15); limit of detection
Human VEGF 165 [7] = target: T1, Human VEGF 165; assay: BLI, VEGF 165 on probe; sample aged 14 days at 37 °C
Human VEGF 165 [8] = target: T1, Human VEGF 165; assay: BLI, VEGF 165 on probe; sample aged 4 days at 37 °C
Human VEGF 165 [9] = target: T1, Human VEGF 165; assay: BLI; KD after 4 days at 37 °C against KD at t = 0
Human VEGF 165 [10] = target: T1, Human VEGF 165; assay: BLI, VEGF 165 on probe, conjugate as analyte, t = 0; t = 0, fresh conjugate, not aged
Human VEGF 165 [11] = target: T1, Human VEGF 165; assay: BLI, VEGF 165 on probe, conjugate as analyte, t = 0
Human VEGF 165 [12] = target: T1, Human VEGF 165; assay: BLI, VEGF 165 on probe, t = 0 (repeats Table 15)
Human VEGF 165 [13] = target: T1, Human VEGF 165; assay: BLI, VEGF 165 on probe; sample aged 4 days at 37 °C; limit of detection

Row | Binder | Kd (Human VEGF 165 [1]) | Change in KD to t = 0 (Human VEGF 165 [5]) | Kd (Human VEGF 165 [6]) | Kd (Human VEGF 165 [7]) | Change in KD to t = 0 (Human VEGF 165 [9]) | further results
1 | B1 | < 0.001 nM |  |  |  |  | 
2 | B2 |  |  |  |  |  | binding result (Human VEGF 165 [2]): binds
3 | B3 |  |  |  |  |  | Kd (Human VEGF 165 [3]): 0.00107 nM
4 | B4 |  |  |  |  |  | Kd (Human VEGF 165 [4]): < 0.001 nM
5 | B5 | < 0.001 nM | 1140 fold | < 0.001 nM | 1.14 nM | 3300 fold | Kd (Human VEGF 165 [8]): 3.3 nM
6 | B6 |  |  |  |  |  | Kd (Human VEGF 165 [10]): 0.203 nM
7 | B7 |  | 228 fold |  | 0.911 nM | 178 fold | Kd (Human VEGF 165 [11]): 0.004 nM; Kd (Human VEGF 165 [8]): 0.713 nM; Kd (Human VEGF 165 [12]): 0.004 nM
8 | B8 |  |  |  |  |  | Kd (Human VEGF 165 [11]): 0.011 nM
9 | B9 | < 0.001 nM | 1950 fold | < 0.001 nM | 1.95 nM | 6960 fold | Kd (Human VEGF 165 [8]): 6.96 nM
10 | B10 | < 0.001 nM | 3670 fold | < 0.001 nM | 3.67 nM | 1 fold | Kd (Human VEGF 165 [13]): < 0.001 nM
11 | B11 | < 0.001 nM | 142 fold | < 0.001 nM | 0.142 nM | 5870 fold | Kd (Human VEGF 165 [8]): 5.87 nM
12 | B12 | < 0.001 nM |  | < 0.001 nM |  | 185 fold | Kd (Human VEGF 165 [8]): 0.185 nM
13 | B13 | < 0.001 nM | 1440 fold | < 0.001 nM | 1.44 nM | 1 fold | Kd (Human VEGF 165 [13]): < 0.001 nM
14 | B14 |  |  |  |  |  | binding result (Human VEGF 165 [2]): binds
15 | B15 |  |  |  |  |  | binding result (Human VEGF 165 [2]): binds
16 | B16 |  |  |  |  |  | Kd (Human VEGF 165 [11]): 0.678 nM
17 | B17 |  |  |  |  |  | Kd (Human VEGF 165 [11]): 0.123 nM
